Experimental findings from article PMC8421226, “Structural basis for glucocorticoid receptor recognition of both unmodified and methylated binding sites, precursors of a modern recognition element” (Nucleic Acids Research, 2021) are described below.

Data set [1] deals with AncGR1 DBD (reconstructed ancestral). Put plainly: fluorescence polarization. The note with it: FP: 20 mM Tris-HCl pH 7.4, 150 mM NaCl, 5% glycerol, 10 nM FAM-DNA, 1 nM-50 uM DBD, temperature not stated. Background: Polarisation of emitted light reports the rotation of a fluorescent probe.
Data set [2] relates to AncSR2 DBD (reconstructed ancestral). Description: fluorescence polarization. Particulars: FP: 20 mM Tris-HCl pH 7.4, 150 mM NaCl, 5% glycerol, 10 nM FAM-DNA, 1 nM-50 uM DBD, temperature not stated.
Data set [3] deals with AncCR DBD (reconstructed ancestral). Description: fluorescence polarization. Particulars: FP: 20 mM Tris-HCl pH 7.4, 150 mM NaCl, 5% glycerol, 10 nM FAM-DNA, 1 nM-50 uM DBD, temperature not stated.
Data set [4] has as its target T1, GR DBD (human, UniProt P04150 418-493). Description: fluorescence polarization; FP: 20 mM Tris-HCl pH 7.4, 150 mM NaCl, 5% glycerol; 10 nM FAM-DNA, 1 nM-50 uM DBD; temperature not stated. Particulars: protein: recombinant, tags: 6xHis (pMCSG7 vector), chain copies: 2, label: 5' FAM on strand 1.
For data set [5], the target named is T1, GR DBD. Put plainly: X-ray crystallography (2.5 A); DBD dimer; FP: 20 mM Tris-HCl pH 7.4, 150 mM NaCl, 5% glycerol; 10 nM FAM-DNA, 1 nM-50 uM DBD; temperature not stated. Particulars: protein: recombinant; tags: 6xHis (pMCSG7 vector); chain copies: 2.
Data set [6] concerns the molecule itself. Description: crystal structure; GR DBD with 5mC-GBS or pre-GBS DNA duplex, 2:1 protein:DNA molar ratio; hanging drop vapor diffusion, 50 mM sodium cacodylate pH 6.5, 80 mM calcium chloride, 1% glycerol, 7% or 8.5% PEG 400; dimer of DBD on DNA in the asymmetric unit.
Data set [7] concerns the target T1, GR DBD. Put plainly: X-ray crystallography (2.0 A); DBD dimer; FP: 20 mM Tris-HCl pH 7.4, 150 mM NaCl, 5% glycerol; 10 nM FAM-DNA, 1 nM-50 uM DBD; temperature not stated. Particulars: protein: recombinant; tags: 6xHis (pMCSG7 vector); chain copies: 2.
[8] abbreviates: 5mC at CpG, methyl at mC10 of AGAACGGAGCGTTCT (C12 of strand) seen in structure, other positions in Figure 3A.

T1 sequence (P04150 418-493): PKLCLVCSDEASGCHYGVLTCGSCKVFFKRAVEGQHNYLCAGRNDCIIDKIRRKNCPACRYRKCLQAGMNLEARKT

One may read the Kd as the concentration at which binding is half-saturated. As for “CCAGAACGGAGCGTTCTGA (double strand) [5mC-GBS]”, the Kd was determined as 78 nM in data set [1] (setting [8]), 443 nM in data set [2] (setting [8]) and 318 nM in data set [3] (setting [8]). Take “CCAGAACGGAGCGTTCTGA / TCAGAACGCTCCGTTCTG [pre-GBS]”: the dissociation constant Kd was found to be 139 nM in data set [1], 811 nM in data set [2] and 575 nM in data set [3].

B1: pre-GBS (dsDNA)
DNA 1: CCAGAACGGAGCGTTCTGA
DNA 2: TCAGAACGCTCCGTTCTG
For B1, the Kd with GR DBD [4] (as printed the second strand lacks its 3' terminal G (5' overhang 1 nt on strand 1), possibly a misprint) stood at 206 nM.

B2: pre-GBS crystal DNA (dsDNA)
DNA 1: CCAGAACGGAGCGTTCTG
DNA 2: TCAGAACGCTCCGTTCTG
For the molecule B2, the binding result with GR DBD [5] is listed as “binds”.

B3: human glucocorticoid receptor DNA-binding domain (domain or fragment)
chain: PPKLCLVCSDEASGCHYGVLTCGSCKVFFKRAVEGQHNYLCAGRNDCIIDKIRRKNCPACRYRKCLQAGMNLEAR
notes: Cloned into the pMCSG7 vector; In the crystals two DBD copies sit on one DNA duplex (5mC-GBS or pre-GBS); also called GR DBD; GR; source: E. coli BL21 (DE3) pLysS, purified (His-Trap, gel filtration)
As usually defined, the stoichiometry N is a count of units in the complex or per binding partner. In the case of B3, the “stoichiometry N” value in data set [6] stood at 2.

B4: GBS (dsDNA)
DNA 1: TGAGAACAGAGTGTTCTTT
DNA 2: AAAGAACACTCTGTTCTCA
For the molecule B4, the Kd with GR DBD [4] (blunt) worked out at 73 nM.

B5: 5mC-GBS (dsDNA)
DNA 1: CCAGAACGGAGCGTTCTGA
DNA 2: TCAGAACGCTCCGTTCTGG
modifications: 5mC at CpG; methyl at mC10 of AGAACGGAGCGTTCT (C12 of strand) seen in structure, other positions in Figure 3A
As to B5, the Kd in the data set with GR DBD [4] (blunt) amounted to 131 nM.

B6: 5mC-GBS crystal DNA (dsDNA)
DNA 1: CCAGAACGGAGCGTTCTG
DNA 2: TCAGAACGCTCCGTTCTG
modifications: 5mC at CpG (mC10)
On to B6, for which the binding result with GR DBD [7] is given as “binds”.
